Results as given in article doi:10.1101/2021.01.07.425795 (bioRxiv, 2021).
Like-named read-outs stand apart in the source and are kept apart here.

B1: His6-SMT3-NDUFAF1 (natural protein, human, UniProt Q9Y375 25-327, looked up)
chain: YPFLGIRFAEYSSSLQKPVASPGKASSQRKTEGDLQGDHQKEVALDITSSEEKPDVSFDKAIRDEAIYHFRLLKDEIVDHWRGPEGHPLHEVLLEQAKVVWQFRGKEDLDKWTVTSDKTIGGRSEVFLKMGKNNQSALLYGTLSSEAPQDGESTRSGYCAMISRIPRGAFERKMSYDWSQFNTLYLRVRGDGRPWMVNIKEDTDFFQRTNQMYSYFMFTRGGPYWQEVKIPFSKFFFSNRGRIRDVQHELPLDKISSIGFTLADKVDGPFFLEIDFIGVFTDPAHTEEFAYENSPELNPRLFK
B2: ECSIT (tag-free) (natural protein, human, UniProt Q9BQ95 49-431, looked up)
chain: SSEQSLVPSPPEPRQRPTKALVPFEDLFGQAPGGERDKASFLQTVQKFAEHSVRKRGHIDFIYLALRKMREYGVERDLAVYNQLLNIFPKEVFRPRNIIQRIFVHYPRQQECGIAVLEQMENHGVMPNKETEFLLIQIFGRKSYPMLKLVRLKLWFPRFMNVNPFPVPRDLPQDPVELAMFGLRHMEPDLSARVTIYQVPLPKDSTGAADPPQPHIVGIQSPDQQAALARHNPARPVFVEGPFSLWLRNKCVYYHILRADLLPPEEREVEETPEEWNLYYPMQLDLEYVRSGWDNYEFDINEVEEGPVFAMCMAGAHDQATMAKWIQGLQETNPTLAQIPVVFRLAGSTRELQTSSAGLEEPPLPEDHQEEDDNLQRQQQGQS

Legend:
His6-ECSIT [1] = biological target: T1, His6-ECSIT (human, UniProt Q9BQ95 49-431); assay: SEC
T1 sequence (looked up): B2 chain

His6-ECSIT [2] = biological target: T1, His6-ECSIT; assay: SEC; remark: listed apart in the source
ACAD9-His6 = biological target: T2, ACAD9-His6 (human, UniProt Q9H845 38-621); assay: pull-down
T2 sequence (looked up): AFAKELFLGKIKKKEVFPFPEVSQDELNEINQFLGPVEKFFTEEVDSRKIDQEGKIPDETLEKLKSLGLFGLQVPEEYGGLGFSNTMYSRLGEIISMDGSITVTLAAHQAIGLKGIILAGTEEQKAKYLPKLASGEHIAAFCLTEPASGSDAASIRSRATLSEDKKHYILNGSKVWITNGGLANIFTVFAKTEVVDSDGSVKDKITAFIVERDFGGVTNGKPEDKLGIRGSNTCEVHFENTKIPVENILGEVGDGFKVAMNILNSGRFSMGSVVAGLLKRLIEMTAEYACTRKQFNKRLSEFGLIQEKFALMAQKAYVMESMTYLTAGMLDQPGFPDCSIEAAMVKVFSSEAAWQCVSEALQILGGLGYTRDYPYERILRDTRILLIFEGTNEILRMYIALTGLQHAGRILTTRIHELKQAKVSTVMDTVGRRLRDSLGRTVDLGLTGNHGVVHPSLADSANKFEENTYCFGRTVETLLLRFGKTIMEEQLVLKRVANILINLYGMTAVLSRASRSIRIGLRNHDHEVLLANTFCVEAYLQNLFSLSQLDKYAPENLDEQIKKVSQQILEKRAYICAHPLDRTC

Binder	stoichiometry N (His6-ECSIT [1]) [mol/mol]	stoichiometry N (His6-ECSIT [2])	stoichiometry N (ACAD9-His6) [mol/mol]
B1	1	1 NDUFAF1 chains per ECSIT chain (two monomers with one dimer)	–
B2	–	–	~1
